Legend:
[1] = target: purified human TGF-β1 (human) (UniProt P01137)
[2] = target: purified human TGF-β1 (human) (UniProt P01137); remark: listed apart in the source
TGF-β2 = assay: SPR (BIAcore); analyte over immobilized cytokine
BMP-4 = assay: SPR (BIAcore); analyte over immobilized cytokine

- percent neutralization of the antiproliferative activity of TGF-β1 (3H-thymidine incorporation, Mv1Lu cells) [1]: 150%
- IC50, neutralization of TGF-β1 activity in the Mv1Lu growth inhibition assay [2]: 0.22 µM
- Kd (TGF-β2): 3.8 µM
- koff (TGF-β2): 0.005 s⁻¹
- kon (TGF-β2): 1300 M⁻¹ s⁻¹
- Kd (BMP-4): 0.02 µM
- koff (BMP-4): 0.0011 s⁻¹
- kon (BMP-4): 54000 M⁻¹ s⁻¹
Substance: bovine thyroglobulin (from UniProt P01267)

— patent publication US5981483
